Read-outs that look alike come from different tables or passages of the source.
Tests used:
[1] = test system: tryparedoxin peroxidase isolated from Crithidia fasciculata
[2] = target: tryparedoxin peroxidase isolated from Crithidia fasciculata; remark: listed apart in the source

Q: “authentic tryparedoxin I isolated from Crithidia fasciculata” was tested. Which “specific activity (coupled NADPH consumption assay)” value [1] did it give?
A: 2.3 U/mg for the authentic enzyme

Q: How did the “specific activity (coupled NADPH consumption assay)” value [2] turn out when TQSLPSSFLASLEHHHHHH [recombinant tryparedoxin II containing a His tag (expressed from pET/TXN II H6 in E. coli BL21(DE3))] was run?
A: 7.7 U/mg

From patent US20050143559
